Measured values: PMC10786891, “Massively parallel profiling of RNA-targeting CRISPR-Cas13d”
Where a chain is given by its changes, count along the chain named. Names may count otherwise.

B1: target 1 insG 3' of 10,insU 3' of 1 (mixed)
RNA 1: CACCCGUGCAAAAAUGCAGGGGUCUAAAACUGAGCGGAUAACCUCUCUAUGG
RNA 2: GGGAAUGGAUCCACAUCUACGAAUUCGUACCAUAGAGAGGUUGAUCCGCUCAUCCGAGAUCGGAAGAGCACACGU
B2: target 1 insG 3' of 14,insA 3' of 3 (mixed)
RNA 1: B1 RNA 1
RNA 2: B1 RNA 2 with U41G, G43U, C51A, A52C, U53A
B3: target 1 U3A,A18U (mixed)
RNA 1: B1 RNA 1
RNA 2: GGGAAUGGAUCCACAUCUACGAAUUCGUACCAUUGAGAGGUUAUCCGCACACCGAGAUCGGAAGAGCACACGU
B4: target 1 insG 3' of 8,insA 3' of 2 (mixed)
RNA 1: B1 RNA 1
RNA 2: B1 RNA 2 with G43A, A44U, U45G, U53A
B5: target 1 U19A,A20C (mixed)
RNA 1: B1 RNA 1
RNA 2: B3 RNA 2 with A32C, U33A, U34A, A49U
B6: target 1 insU 3' of 17,insU 3' of 16 (mixed)
RNA 1: B1 RNA 1
RNA 2: GGGAAUGGAUCCACAUCUACGAAUUCGUACCAUAGUAUGAGGUUAUCCGCUCACCGAGAUCGGAAGAGCACACGU
B7: target 1 insC 3' of 20,insA 3' of 2 (mixed)
RNA 1: B1 RNA 1
RNA 2: GGGAAUGGAUCCACAUCUACGAAUUCGUACCACUAGAGAGGUUAUCCGCUCAACCGAGAUCGGAAGAGCACACGU
B8: target 1 insU 3' of 17,insA 3' of 6 (mixed)
RNA 1: B1 RNA 1
RNA 2: B6 RNA 2 with U38G, G39A, A40G, G42U, U44A, A45U, U46C, C48A
B9: target 1 insG 3' of 10,insG 3' of 1 (mixed)
RNA 1: B1 RNA 1
RNA 2: B1 RNA 2 with U53G
B10: target 1 U3G (mixed)
RNA 1: B1 RNA 1
RNA 2: B3 RNA 2 with U34A, A49G
B11: target 1 insG 3' of 10,insC 3' of 1 (mixed)
RNA 1: B1 RNA 1
RNA 2: B1 RNA 2 with U53C
B12: target 1 C6U,C22G (mixed)
RNA 1: B1 RNA 1
RNA 2: B3 RNA 2 with C30G, U34A, C46U, A49U
B13: target 1 insU 3' of 18,insC 3' of 3 (mixed)
RNA 1: B1 RNA 1
RNA 2: B7 RNA 2 with C33U, U34A, A35U, A52C
B14: target 1 G15C,C21A (mixed)
RNA 1: B1 RNA 1
RNA 2: B3 RNA 2 with C31A, U34A, G37C, A49U
B15: target 1 A1G,U3G (mixed)
RNA 1: B1 RNA 1
RNA 2: B3 RNA 2 with U34A, A49G, A51G
B16: target 1 insG 3' of 18,insU 3' of 13 (mixed)
RNA 1: B1 RNA 1
RNA 2: B6 RNA 2 with U36G, U38G, G39A, A40G, G41U
B17: target 1 insA 3' of 11,insA 3' of 11 (mixed)
RNA 1: B1 RNA 1
RNA 2: B6 RNA 2 with U36A, A37G, U38A, A40G, G41U, G42A, U43A
B18: target 1 insU 3' of 17,insA 3' of 15 (mixed)
RNA 1: B1 RNA 1
RNA 2: B6 RNA 2 with U38G, G39A
B19: target 1 G5U,G12A (mixed)
RNA 1: B1 RNA 1
RNA 2: B3 RNA 2 with U34A, G40A, G47U, A49U
B20: target 1 insU 3' of 2,insU 3' of 2 (mixed)
RNA 1: B1 RNA 1
RNA 2: GGGAAUGGAUCCACAUCUACGAAUUCGUACCAUAGAGAGGUUAUCCGCUCUUACCGAGAUCGGAAGAGCACACGU
B21: target 1 U3A,C4U (mixed)
RNA 1: B1 RNA 1
RNA 2: B3 RNA 2 with U34A, C48U
B22: target 1 A1C,U3G (mixed)
RNA 1: B1 RNA 1
RNA 2: B3 RNA 2 with U34A, A49G, A51C
B23: target 1 insA 3' of 17,insU 3' of 7 (mixed)
RNA 1: B1 RNA 1
RNA 2: B6 RNA 2 with U36A, U38G, G39A, A40G, G42U, U44A, A45U, U46C, C47U
B24: target 1 insG 3' of 10,insC 3' of 10 (mixed)
RNA 1: B1 RNA 1
RNA 2: B20 RNA 2 with A43G, U44C, C45A, C46U, G47C, U49G, U52C
B25: target 1 insG 3' of 10,insA 3' of 2 (mixed)
RNA 1: B1 RNA 1
RNA 2: B1 RNA 2 with U53A
B26: target 1 insG 3' of 18,insG 3' of 2 (mixed)
RNA 1: B1 RNA 1
RNA 2: B7 RNA 2 with C33U, U34A, A35G, A52G
B27: target 1 insG 3' of 22,insC 3' of 19 (mixed)
RNA 1: B1 RNA 1
RNA 2: B6 RNA 2 with C31G, A32C, U33A, A34U, G35C, U36A, A37G, U38A
B28: target 1 insU 3' of 18,insC 3' of 9 (mixed)
RNA 1: B1 RNA 1
RNA 2: B6 RNA 2 with G35U, U36G, U38G, G39A, A40G, G42U, U44A, A45C
B29: target 1 A1G,A16G (mixed)
RNA 1: B1 RNA 1
RNA 2: B3 RNA 2 with U34A, A36G, A49U, A51G
B30: target 1 U11G,C22U (mixed)
RNA 1: B1 RNA 1
RNA 2: B3 RNA 2 with C30U, U34A, U41G, A49U
B31: target 1 A1U,U3G (mixed)
RNA 1: B1 RNA 1
RNA 2: B3 RNA 2 with U34A, A49G, A51U
B32: target 1 insG 3' of 21,insG 3' of 4 (mixed)
RNA 1: B1 RNA 1
RNA 2: B7 RNA 2 with A32G, C33A, U50G, C51U, A52C
B33: target 1 A9G,G17U (mixed)
RNA 1: B1 RNA 1
RNA 2: B3 RNA 2 with U34A, G35U, A43G, A49U
B34: target 1 G12U,G15U (mixed)
RNA 1: B1 RNA 1
RNA 2: B3 RNA 2 with U34A, G37U, G40U, A49U

Target: T1, EsCas13d, nuclease-dead (Eubacterium siraeum, UniProt B0MS50, R295A;H300A;R849A;H854A)
T1 sequence: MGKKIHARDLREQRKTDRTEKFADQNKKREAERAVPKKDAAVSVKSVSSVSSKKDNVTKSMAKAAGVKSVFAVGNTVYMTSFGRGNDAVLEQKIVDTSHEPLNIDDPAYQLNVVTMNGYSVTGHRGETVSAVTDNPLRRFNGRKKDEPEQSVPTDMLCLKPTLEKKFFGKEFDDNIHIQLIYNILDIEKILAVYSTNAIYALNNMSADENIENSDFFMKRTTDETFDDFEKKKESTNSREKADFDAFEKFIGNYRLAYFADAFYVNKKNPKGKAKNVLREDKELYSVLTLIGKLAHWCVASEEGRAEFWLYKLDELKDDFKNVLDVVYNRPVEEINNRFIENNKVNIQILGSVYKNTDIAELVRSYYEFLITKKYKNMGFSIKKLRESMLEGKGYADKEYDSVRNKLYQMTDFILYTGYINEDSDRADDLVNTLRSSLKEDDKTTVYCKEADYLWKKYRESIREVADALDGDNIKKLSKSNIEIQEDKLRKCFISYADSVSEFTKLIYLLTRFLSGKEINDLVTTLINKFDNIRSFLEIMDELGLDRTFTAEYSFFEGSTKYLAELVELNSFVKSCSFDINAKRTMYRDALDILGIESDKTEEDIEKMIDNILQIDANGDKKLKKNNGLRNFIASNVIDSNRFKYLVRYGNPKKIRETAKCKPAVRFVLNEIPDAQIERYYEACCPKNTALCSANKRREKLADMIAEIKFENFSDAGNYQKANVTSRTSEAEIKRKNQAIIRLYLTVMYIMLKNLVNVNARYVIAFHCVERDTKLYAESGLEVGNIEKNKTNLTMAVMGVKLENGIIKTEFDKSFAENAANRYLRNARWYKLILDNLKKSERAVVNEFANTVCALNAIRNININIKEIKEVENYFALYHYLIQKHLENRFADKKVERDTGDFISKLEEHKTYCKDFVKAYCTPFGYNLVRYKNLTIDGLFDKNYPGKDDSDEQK
Assay: crRNA (strand 1, pre-loaded); Mg2+; 40 mM Tris-HCl pH 7.5, 150 mM NaCl, 6 mM MgCl2, 1 mM DTT, 0.1% Tween-20, 0.2 mg/ml BSA; 25 C; 10 min per concentration, then washed
Settings: tags: His6-TwinStrep-SUMO cleaved; N-terminal SNAP kept (SNAP-Surface 488); label: 3' end held by stalled T7 RNA polymerase

Binder | Kd
B1 | 33 ± 5 nM
B2 | 11.4 ± 0.8 nM
B3 | 33 ± 5 nM
B4 | 13.2 ± 0.9 nM
B5 | 45 ± 6 nM
B6 | 41 ± 7 nM
B7 | 10 ± 0.6 nM
B8 | 45 ± 10 nM
B9 | 22.5 ± 2 nM
B10 | 11.3 ± 1.3 nM
B11 | 26.8 ± 2.5 nM
B12 | 39 ± 8 nM
B13 | 28 ± 4 nM
B14 | ~50 nM
B15 | 3.35 ± 0.12 nM
B16 | 71 ± 17 nM
B17 | 8.6 ± 0.5 nM

Binder | Kd
B18 | 15.3 ± 2 nM
B19 | 42 ± 5 nM
B20 | 9.6 ± 0.7 nM
B21 | 37 ± 5 nM
B22 | 46 ± 7 nM
B23 | 20.6 ± 1.6 nM
B24 | 23.5 ± 1.7 nM
B25 | 22.2 ± 1.4 nM
B26 | ~70 nM
B27 | 52 ± 8 nM
B28 | 50 ± 5 nM
B29 | 32.2 ± 3 nM
B30 | 42 ± 7 nM
B31 | 8.1 ± 0.4 nM
B32 | 51 ± 11 nM
B33 | 35 ± 6 nM
B34 | 23.3 ± 1.8 nM
